Results taken from patent publication US20230212306A1 (Daiichi Sankyo, published 2023).

What was measured:
[1] = target: T1, mouse TLR7-Flag-His×6, expressed in Ba/F3 cells (mouse, UniProt P58681 27-1050); assay: flow cytometry (MFI) on saponin-permeabilised Ba/F3 cells expressing mouse TLR7-Flag-His×6
T1 construct: cells permeabilised with 0.1% saponin; not shown: Flag-His×6 tag added to the C-terminus
T1 sequence: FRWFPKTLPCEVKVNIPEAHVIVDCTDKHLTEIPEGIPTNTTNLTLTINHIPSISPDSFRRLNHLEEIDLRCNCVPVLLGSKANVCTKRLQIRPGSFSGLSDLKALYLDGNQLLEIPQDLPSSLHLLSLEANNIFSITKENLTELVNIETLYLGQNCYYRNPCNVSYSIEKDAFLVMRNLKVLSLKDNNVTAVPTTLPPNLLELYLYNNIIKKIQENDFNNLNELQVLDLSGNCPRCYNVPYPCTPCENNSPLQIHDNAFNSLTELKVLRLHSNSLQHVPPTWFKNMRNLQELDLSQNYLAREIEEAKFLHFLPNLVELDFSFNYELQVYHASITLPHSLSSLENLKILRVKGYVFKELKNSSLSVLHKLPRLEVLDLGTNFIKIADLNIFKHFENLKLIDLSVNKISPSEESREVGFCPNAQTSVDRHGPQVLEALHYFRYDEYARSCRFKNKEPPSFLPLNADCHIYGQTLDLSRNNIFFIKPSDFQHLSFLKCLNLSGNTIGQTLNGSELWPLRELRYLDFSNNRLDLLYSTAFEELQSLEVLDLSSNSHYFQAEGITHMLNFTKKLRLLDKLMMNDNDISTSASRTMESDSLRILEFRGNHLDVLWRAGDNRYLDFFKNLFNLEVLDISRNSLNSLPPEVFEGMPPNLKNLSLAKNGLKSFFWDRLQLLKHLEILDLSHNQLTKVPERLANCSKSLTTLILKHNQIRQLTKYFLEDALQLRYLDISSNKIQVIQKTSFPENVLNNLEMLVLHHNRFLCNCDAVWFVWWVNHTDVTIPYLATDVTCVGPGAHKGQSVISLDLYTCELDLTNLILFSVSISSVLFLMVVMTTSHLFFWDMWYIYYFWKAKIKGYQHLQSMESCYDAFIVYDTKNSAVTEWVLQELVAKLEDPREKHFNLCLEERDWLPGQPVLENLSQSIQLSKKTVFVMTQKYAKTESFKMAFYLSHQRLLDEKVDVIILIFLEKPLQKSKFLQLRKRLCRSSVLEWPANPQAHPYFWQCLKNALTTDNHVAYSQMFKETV
From the text: (§1) The Ba/F3 cell line expressing human TLR7-Flag-His×6/human Unc93B1-HA×2 established above in 1)-1-1, the Ba/F3 cell line expressing mouse TLR7-Flag-His×6 established above in 2)-1-1, the Ba/F3 cell line expressing rat TLR7-Flag-His×6×2 established above in 2)-1-2, and the Ba/F3 cell line expressing monkey TLR7-Flag-His×6 established above in 2)-1-3 were subjected to membrane permeation with 0.1% Saponin and stained using AT01 antibody, NB7 antibody, and FAN2 antibody, and a secondary antibody, Goat anti-mouse IgG (H+L)-PE (eBioscience). The binding selectivity of each antibody was evaluated by comparing the average fluorescence intensity (MFI) based on flow cytometry analysis.

[2] = target: T2, rat TLR7-Flag-His×6, expressed in Ba/F3 cells (rat, UniProt P58681 27-1050 (mouse entry)); assay: flow cytometry (MFI) on saponin-permeabilised Ba/F3 cells expressing rat TLR7-Flag-His×6
T2 construct: cells permeabilised with 0.1% saponin; not shown: Flag-His×6 tag added to the C-terminus
T2 chain: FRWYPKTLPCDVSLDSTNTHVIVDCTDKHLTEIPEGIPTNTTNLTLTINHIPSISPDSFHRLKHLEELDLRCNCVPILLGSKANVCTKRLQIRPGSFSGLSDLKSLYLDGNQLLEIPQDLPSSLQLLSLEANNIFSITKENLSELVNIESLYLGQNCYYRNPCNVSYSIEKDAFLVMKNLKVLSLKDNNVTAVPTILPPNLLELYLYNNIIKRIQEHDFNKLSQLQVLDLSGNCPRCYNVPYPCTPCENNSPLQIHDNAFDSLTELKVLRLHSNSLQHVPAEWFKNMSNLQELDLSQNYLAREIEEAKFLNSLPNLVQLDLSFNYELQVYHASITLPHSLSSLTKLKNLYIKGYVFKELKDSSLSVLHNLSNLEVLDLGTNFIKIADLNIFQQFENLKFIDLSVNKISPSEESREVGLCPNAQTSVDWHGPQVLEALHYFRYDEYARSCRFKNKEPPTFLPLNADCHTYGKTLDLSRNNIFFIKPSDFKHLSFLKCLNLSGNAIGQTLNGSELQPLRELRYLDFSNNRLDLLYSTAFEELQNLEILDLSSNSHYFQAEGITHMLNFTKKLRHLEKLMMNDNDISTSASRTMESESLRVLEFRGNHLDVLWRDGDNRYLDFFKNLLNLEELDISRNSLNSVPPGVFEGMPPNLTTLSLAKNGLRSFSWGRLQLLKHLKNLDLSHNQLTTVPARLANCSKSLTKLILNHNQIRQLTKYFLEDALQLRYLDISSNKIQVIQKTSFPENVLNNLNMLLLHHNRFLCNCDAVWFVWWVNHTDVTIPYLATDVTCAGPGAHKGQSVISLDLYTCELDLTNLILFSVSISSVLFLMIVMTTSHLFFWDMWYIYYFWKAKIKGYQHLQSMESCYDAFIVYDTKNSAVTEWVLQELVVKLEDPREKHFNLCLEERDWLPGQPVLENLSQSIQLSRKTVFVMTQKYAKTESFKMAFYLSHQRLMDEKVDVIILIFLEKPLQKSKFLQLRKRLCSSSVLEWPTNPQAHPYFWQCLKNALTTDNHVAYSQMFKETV
From the text: as §1

Binder | binding result [1] | binding result [2]
NB7 antibody (antibody, IgG1, V domains shown, also called mouse anti-human TLR7 antibody (NB7)) VH: DVQLQESGPGLVKPSQSLSLTCTVTGYSITSDYAWNWIRQFPGNKLEWMGHISYRGNTNYNPSLKSRISITRDTSKNQFFLQLNSVTTEDTATYYCASWNYYGYVDYAMDYWGQGTSVTVSS VL: DIQMTQTPSSLSASLGDRVTISCRASQDISNYLNWYQQKPDGTVKLLIYYTSRLHSGVPSRFSGSGSGTDYSLTINNLEQEDIATYFCQQGDTFPTFGGGTKLEIK | no binding | no binding
AT01 antibody (antibody, IgG1, V domains shown, also called mouse anti-human TLR7 antibody (AT01)) VH: QVQLQQPGAELVKPGASVNLSCKASGYTFTNNWLHWVKQRPGRGLEWIGDIYPSNGRTNYNEQFKTKATLTVDKSSSTAYMQLSSLTSEDSAVYFCARERGYFDYWGQGTALTVSS VL: DIQMTQSPSSLSTSLGGKVTITCKASQDINKYIAWYQHKPGKGPRLLIHYTSTLQPGIPSRFSGSGSGRDYSFSISNLEPEDIATYYCLQYDYLLTFGAGTKLELK | no binding | no binding
FAN2 antibody (antibody, IgG1, V domains shown, also called mouse anti-human TLR7 antibody (FAN2)) VH: QVQLKESGPGLVAPSQSLSITCTVSGFSLTGYGVNWVRQPPGKGLEWLGMIWGDGSTDYNSALKSRLSIRKDNSKSQVFLKMNSLQTDDTARYYCARDKGYDGYYYAMDYWGQGTSVTVSS VL: DIQMTQSPASLSASVGETVTITCRASENIYSYLAWYQQKQGKSPQLLVYDAKTLAEGVPSRFSGSGSGTQFSLKINSLQPEDFGSYYCQHHYGIPYTFGGGTKLEIK | no binding | no binding
